Results on seven substances are retold here after the supplement of paper PMC5998384.

The subject of series [1] is HeLa Kyoto. In words: solubility in G1/S (NP-40 vs SDS abundance) (log2 ratio); higher = more soluble. The following applies: cell cycle stage: G1/S.
The subject of series [2] is HeLa Kyoto. In words: solubility change mitosis vs G1/S (difference of NP-40 vs SDS log2 ratios) (log2 ratio difference); higher = more soluble in mitosis.
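Wherever solubility change mitosis vs G1/S (difference of NP-40 vs SDS log2 ratios) is given: synchronized HeLa Kyoto cells (double thymidine block for G1/S, nocodazole release for mitosis), protein amounts in NP-40 versus SDS lysates quantified by mass spectrometry, three biological replicates.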
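Wherever solubility in G1/S (NP-40 vs SDS abundance) is given: HeLa Kyoto cells arrested at G1/S by double thymidine block, proteins quantified by TMT10plex mass spectrometry in mild NP-40 versus SDS extracts, three biological replicates.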

Sequence of MAP1A (chain, as listed by the source): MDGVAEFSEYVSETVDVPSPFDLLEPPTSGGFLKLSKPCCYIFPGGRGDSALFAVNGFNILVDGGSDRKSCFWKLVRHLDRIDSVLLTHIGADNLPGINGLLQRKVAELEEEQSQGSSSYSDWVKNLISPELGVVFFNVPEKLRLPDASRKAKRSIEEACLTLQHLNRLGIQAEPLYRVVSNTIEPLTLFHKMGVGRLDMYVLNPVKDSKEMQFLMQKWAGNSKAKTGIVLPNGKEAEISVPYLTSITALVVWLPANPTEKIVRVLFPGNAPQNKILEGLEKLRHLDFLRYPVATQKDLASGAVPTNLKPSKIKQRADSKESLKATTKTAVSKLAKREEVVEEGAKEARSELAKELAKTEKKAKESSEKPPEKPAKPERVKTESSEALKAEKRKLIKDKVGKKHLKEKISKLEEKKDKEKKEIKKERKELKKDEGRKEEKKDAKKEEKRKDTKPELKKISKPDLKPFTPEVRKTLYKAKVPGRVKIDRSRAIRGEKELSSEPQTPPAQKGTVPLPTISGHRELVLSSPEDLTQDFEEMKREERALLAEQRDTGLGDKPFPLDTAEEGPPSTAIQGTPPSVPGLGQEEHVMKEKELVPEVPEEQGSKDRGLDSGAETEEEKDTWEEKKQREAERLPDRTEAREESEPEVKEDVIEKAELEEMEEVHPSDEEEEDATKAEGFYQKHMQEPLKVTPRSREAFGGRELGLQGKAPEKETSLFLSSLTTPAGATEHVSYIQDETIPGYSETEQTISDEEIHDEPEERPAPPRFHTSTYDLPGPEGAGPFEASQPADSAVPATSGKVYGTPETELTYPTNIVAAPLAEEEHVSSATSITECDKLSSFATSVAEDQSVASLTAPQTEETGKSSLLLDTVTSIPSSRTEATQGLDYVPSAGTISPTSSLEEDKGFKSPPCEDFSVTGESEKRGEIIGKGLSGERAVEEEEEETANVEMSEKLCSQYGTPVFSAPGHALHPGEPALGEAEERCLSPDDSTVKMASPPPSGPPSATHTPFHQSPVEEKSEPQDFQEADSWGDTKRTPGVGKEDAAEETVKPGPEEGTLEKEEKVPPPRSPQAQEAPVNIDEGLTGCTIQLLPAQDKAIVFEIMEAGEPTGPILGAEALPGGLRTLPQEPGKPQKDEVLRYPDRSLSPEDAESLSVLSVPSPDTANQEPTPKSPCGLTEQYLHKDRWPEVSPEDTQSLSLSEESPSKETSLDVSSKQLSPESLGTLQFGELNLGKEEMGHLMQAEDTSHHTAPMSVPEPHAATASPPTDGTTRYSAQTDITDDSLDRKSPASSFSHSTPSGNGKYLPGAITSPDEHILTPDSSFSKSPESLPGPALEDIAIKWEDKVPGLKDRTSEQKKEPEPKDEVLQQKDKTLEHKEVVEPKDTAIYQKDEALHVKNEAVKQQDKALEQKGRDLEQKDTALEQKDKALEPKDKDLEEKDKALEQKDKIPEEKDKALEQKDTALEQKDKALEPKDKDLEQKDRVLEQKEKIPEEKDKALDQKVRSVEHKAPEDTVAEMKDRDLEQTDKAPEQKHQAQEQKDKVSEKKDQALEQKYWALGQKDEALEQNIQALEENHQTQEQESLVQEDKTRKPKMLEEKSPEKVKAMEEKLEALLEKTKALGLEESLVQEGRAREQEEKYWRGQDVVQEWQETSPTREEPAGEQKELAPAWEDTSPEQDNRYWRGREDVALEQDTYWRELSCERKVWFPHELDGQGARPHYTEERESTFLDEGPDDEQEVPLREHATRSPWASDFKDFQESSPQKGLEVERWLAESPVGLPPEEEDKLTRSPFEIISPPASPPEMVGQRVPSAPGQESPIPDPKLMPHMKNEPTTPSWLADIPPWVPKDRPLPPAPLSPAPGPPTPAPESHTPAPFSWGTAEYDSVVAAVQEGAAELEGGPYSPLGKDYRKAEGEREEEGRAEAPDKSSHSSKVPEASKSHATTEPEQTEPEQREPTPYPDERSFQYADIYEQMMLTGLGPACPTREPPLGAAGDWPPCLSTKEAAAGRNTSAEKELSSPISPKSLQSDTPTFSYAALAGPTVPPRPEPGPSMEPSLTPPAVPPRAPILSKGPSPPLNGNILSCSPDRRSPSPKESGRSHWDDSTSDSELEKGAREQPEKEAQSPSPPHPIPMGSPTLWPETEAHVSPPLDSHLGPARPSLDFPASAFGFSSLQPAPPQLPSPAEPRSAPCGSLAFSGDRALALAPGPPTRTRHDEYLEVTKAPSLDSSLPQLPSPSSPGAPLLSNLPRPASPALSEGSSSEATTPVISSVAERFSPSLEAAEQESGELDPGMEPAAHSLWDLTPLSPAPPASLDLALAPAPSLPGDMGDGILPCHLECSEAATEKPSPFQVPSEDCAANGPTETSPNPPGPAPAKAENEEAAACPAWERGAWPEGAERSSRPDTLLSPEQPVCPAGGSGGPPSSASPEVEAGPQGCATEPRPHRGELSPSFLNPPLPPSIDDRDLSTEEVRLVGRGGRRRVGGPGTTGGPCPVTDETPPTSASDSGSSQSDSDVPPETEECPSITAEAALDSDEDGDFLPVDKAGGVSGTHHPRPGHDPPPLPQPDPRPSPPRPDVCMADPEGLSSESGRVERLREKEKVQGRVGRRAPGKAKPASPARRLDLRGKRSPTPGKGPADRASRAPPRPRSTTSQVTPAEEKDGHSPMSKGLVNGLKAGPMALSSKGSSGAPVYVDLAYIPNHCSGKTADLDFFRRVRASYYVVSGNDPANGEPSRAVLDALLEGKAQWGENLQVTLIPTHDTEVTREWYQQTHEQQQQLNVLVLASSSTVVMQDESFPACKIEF

Consider “MASTRSIELEHFEERDKRPRPGSRRGAPSSSGGSSSSGPKGNGLIPSPAHSAHCSFYRTRTLQALSSEKKAKKARFYRNGDRYFKGLVFAISSDRFRSFDALLIELTRSLSDNVNLPQGVRTIYTIDGSRKVTSLDELLEGESYVCASNEPFRKVDYTKNINPNWSVNIKGGTSRALAAASSVKSEVKESKDFIKPKLVTVIRSGVKPRKAVRILLNKKTAHSFEQVLTDITEAIKLDSGVVKRLCTLDGKQVTCLQDFFGDDDVFIACGPEKFRYAQDDFVLDHSECRVLKSSYSRSSAVKYSGSKSPGPSRRSKSPASVNGTPSSQLSTPKSTKSSSSSPTSPGSFRGLKQISAHGRSSSNVNGGPELDRCISPEGVNGNRCSESSTLLEKYKIGKVIGDGNFAVVKECIDRSTGKEFALKIIDKAKCCGKEHLIENEVSILRRVKHPNIIMLVEEMETATELFLVMELVKGGDLFDAITSSTKYTERDGSAMVYNLANALRYLHGLSIVHRDIKPENLLVCEYPDGTKSLKLGDFGLATVVEGPLYTVCGTPTYVAPEIIAETGYGLKVDIWAAGVITYILLCGFPPFRSENNLQEDLFDQILAGKLEFPAPYWDNITDSAKELISQMLQVNVEARCTAGQILSHPWVSDDASQENNMQAEVTGKLKQHFNNALPKQNSTTTGVSVIMNTALDKEGQIFCSKHCQDSGRPGMEPISPVPPSVEEIPVPGEAVPAPTPPESPTPHPPPAAPGGERAGTWRRHRD [DCLK2]”, for which, in the series with HeLa Kyoto [1], the “solubility in G1/S (log2)” value is -0.0668. The “solubility change mitosis (log2)” value with HeLa Kyoto [2] is -0.0347.
For the substance PRR12, in the series with HeLa Kyoto [1], the “solubility in G1/S (log2)” value is 0.163. Besides, the “solubility change mitosis (log2)” value in the series on HeLa Kyoto [2] was 0.0459.
For “MSTTLLSAFYDVDFLCKTEKSLANLNLNNMLDKKAVGTPVAAAPSSGFAPGFLRRHSASNLHALAHPAPSPGSCSPKFPGAANGSSCGSAAAGGPTSYGTLKEPSGGGGTALLNKENKFRDRSFSENGDRSQHLLHLQQQQKGGGGSQINSTRYKTELCRPFEESGTCKYGEKCQFAHGFHELRSLTRHPKYKTELCRTFHTIGFCPYGPRCHFIHNADERRPAPSGGASGDLRAFGTRDALHLGFPREPRPKLHHSLSFSGFPSGHHQPPGGLESPLLLDSPTSRTPPPPSCSSASSCSSSASSCSSASAASTPSGAPTCCASAAAAAAAALLYGTGGAEDLLAPGAPCAACSSASCANNAFAFGPELSSLITPLAIQTHNFAAVAAAAYYRSQQQQQQQGLAPPAQPPAPPSATLPAGAAAPPSPPFSFQLPRRLSDSPVFDAPPSPPDSLSDRDSYLSGSLSSGSLSGSESPSLDPGRRLPIFSRLSISDD [ZFP36L2]”, the “solubility in G1/S (log2)” value in the series on HeLa Kyoto [1] was 0.322. For the same substance, the “solubility change mitosis (log2)” value in the series with HeLa Kyoto [2] was -0.261.
MAP1A: the “solubility in G1/S (log2)” value with HeLa Kyoto [1] was -0.122. Moreover, the “solubility change mitosis (log2)” value in the series with HeLa Kyoto [2] is -0.0549.
Consider CEP192, for which the “solubility in G1/S (log2)” value with HeLa Kyoto [1] is -0.295. Further, the “solubility change mitosis (log2)” value with HeLa Kyoto [2] was -0.137.
For “MEAAETEAEAAALEVLAEVAGILEPVGLQEEAELPAKILVEFVVDSQKKDKLLCSQLQVADFLQNILAQEDTAKGLDPLASEDTSRQKAIAAKEQWKELKATYREHVEAIKIGLTKALTQMEEAQRKRTQLREAFEQLQAKKQMAMEKRRAVQNQWQLQQEKHLQHLAEVSAEVRERKTGTQQELDRVFQKLGNLKQQAEQERDKLQRYQTFLQLLYTLQGKLLFPEAEAEAENLPDDKPQQPTRPQEQSTGDTMGRDPGVSFKAVGLQPAGDVNLP [ZWINT]” the same measures were -0.0767 and 0.896.
As for “MAEAGAGLSETVTETTVTVTTEPENRSLTIKLRKRKPEKKVEWTSDTVDNEHMGRRSSKCCCIYEKPRAFGESSTESDEEEEEGCGHTHCVRGHRKGRRRATLGPTPTTPPQPPDPSQPPPGPMQH [PPP1R11]”, the “solubility in G1/S (log2)” value with HeLa Kyoto [1] is -0.804. Also, the “solubility change mitosis (log2)” value in the series on HeLa Kyoto [2] stood at 0.00513.
